Assay: soluble on expression in E. coli; label from the status in PepcDB or PDB records

Row | Sequence | soluble on expression in E. coli
1 | MGSDKIHHHHHHMYQELPPLPWLRAFDASARLGNFTLAAQELGLTPSAVSYQVRGLEATLGHKLFVRKQKSLFLTRLGQAYLPVVSKAFGDLEATTSNLFGKSAAQEITLRCLSSLNMLWLAPRLSRFQAQHPDCRLRVLSALWGETPEALQIDIDIRYGNGSWSDGEVTRLMHHEVLAVCAPALHPGPDPQAIASCPLIEVIGVTDTWHHFFALHGLAPPSSGPALKVDQSLIALELATRGMGVALIARVFAQRYLESGALVEATDLALPAREGHYIVQPEARNHFRPEVAALKDWLLQEAAQTGC | not soluble
2 | MFERFDSDRSRYASLGVVSSLPSGLIDSIWLIIDLNLKGVIPLNDLLHFDLLNNNGKVTVHFSQENSSVEMAIDLPFSYSTAYPSRIFAFDDGHRETILLPAEMLES | soluble
3 | MAKYTRDDILAQAKQLAKMIAETEEVDFFKRAEEKIHQNEKVRTLINELKSLQKQAVNLQHYGKHEALKQVEAKIDAIYEELSQIPIVSEFQQSQSDVNDLLQLVASTISNTVTDEILASTGGDVLRGETGAALRYNKHGGCH | not soluble
4 | MGSDKIHHHHHHMEQKLSESEQYLWHFIETHILEIPDYSIVKLSERANVSTATIVRTMKKKGYEGFTSFKHHLKDKENQNINFSALEKVDRGIRTAILKNEEEVTRTINMIEIGNIEDAIQKIKASRRIIIFARGFSELIAQEMMVKFQLAGKYCELHTDPEIIKNISKKLSKKDVALFVSLNGETQELVVAGKNCYDSEIGTILLTASKHSSLMKYIEIPFVGFKSEGSFFPDYEVRSRLPLSILARILLDAYALRTTT | not soluble
5 | MTTMPQRESTIAVPDDRRKQLGAFLRARRESLDPQRLGLPRVGRRRTPGLRREEVAMLADVGVTWYTWLEQGREVNPSEAVLVGVANALQCSPLETRHLFVLAGLTPPEATQVTVCEGISPGTRRMLDSLMPQPASIQKPNFDIVAWNDSFCRLMGIDFATLPEEDRNCIYLYLTHETWRSRIENRDVLPTFVSYFRAAMAEHRGDPAWENKLARFFAASSEFEALWHQRYEVRGVENQIKHFNHPQLGRFSLQQMYWYSAPRNGSRLLVYLPMDEAGEQALAWLDQH | not soluble
6 | MSSAGVALSPVRSEPLIMPLVRANSCLDSYPDDTIMIYLTLPGSVIPMRVLESDSIESVKLRIQSYRGFVVRNQKLVFGGRELARSNSNMRDYGVSEGNILHLVLKLSDLQVLDVKTTCGKHCRFHVERGRNIGYVKKQISKKRGDFVDPDEQEILYEGEKLEDQSLINDICRNDDSVLHLLVRRSAKVRVKPVEKNFELSIVAPQAKDKKGREAKSIVPPKKLSLEPVVVNSKAKVPLVVKDMIQSASDGLKSGNSPVRSSEGTGGAYFMQGPSGNKFVGVFKPIDEEPMAENNPQGLPLSPNGEGLKKGTKVGEGALREVAAYILDHPKSGNKSMFGEEIGFAGVPPTAMIECLHPGFNHPKGIKTKIGSLQMFTENDGSCEDMGPLSFPVEEVHKISVLDIRLANADRHGGNILMTKDESGKLVLVPIDHGYCLPESFEDCTFEWLYWPQARKPYSAETQEYIRSLDAEEDIDLLKFHGWKMPAETAQTLRISTMLLKKGVERGLTAFEIGTIMCRETLSKKSLVEEMVEEAQEAVLPGTSEAAFLEALSDVMDYHLDHSQEH | not soluble
7 | MGSDKIHHHHHHMTGTANYVEFEPTRMGLYEASIRVKHECPYRRISERYPDLTIREWPLSDCQVLEITTETTPTDELLDEINEIGTVLYESADDNGYHVVTQSCLCSLEDSVIDRFEEHNCLYQSPTIYRQGWEHYTVVAFDSEDVRELLDSLRSDREIELLSKTSISETQIPHSMLAPANQLFEDITDRQLAALQLALESGYYEQPRKTSLRDLAERTAVARSTYEEHLRKAENKLLTNAGQFLRLVTATSTTNPLGVESGRRTEQTAD | not soluble
8 | GPGSMSAPTPRTGIIAGFNKGHVTTRRPRQPSPNDRFAVPHKHLRAVKAIIADLVGLSPLEKRVQEFLRVGKEKRALKYCKKRLGDFTAAKKKRSKMEEALRHATKKHH | soluble
9 | MGKMIPYVIDLDAIFDLSSIEIYRLLTSSLSNVRYYPPKDLLKTVINDFDISKFKPFPDSQYLEELNYRARIYVITNLPKIEAKLLLVRYNLDAFIQDVISPEDINRYFPSKEVLVLISRKTNSPLGSITFITPHIDYAILTSNLGMRTILIRNSISLPRDIRVEIRKSLVELAEITAQHKIDSEAGDSALRCQ | not soluble
10 | MGSDKIHHHHHHMQISNEDYEQLKPLLFSLGYRLLGSVTDAEDLVQETFLRAYQAEEREINNKKAYLCKMMTNRCLDVLKSARRKREQYVGPWLPEPLLITSDDPSEAILQKEGLSMAYLRMMEHLTPHERAVFLLREVFTFSYREIASMMEKKEDNCRKLYSRAKEKLSAVKGESLHYENNRSVVDRFIHSFQTEDQGDLLELLSDHVTLYTDGGGKVRAALRPIYTKDHVAAFLFGIAKKRPNDFYVEVKNVNGQPALISYADSKLYNVICFYIVGGQIQDIYIIMNPEKLPSNG | not soluble
11 | MREIPLVSVALATYNGERYLRRQLDSVLAQTYRNIEIVVSDDCSRDGTVAILEEYRRAHGITFRVNERNLGFVRNFERALAGCRGEFIALSDQDDIWLPEKIETLVREIGPHSLIYTDALLIDGDDQPLPGSLVEVSGVRPVSGTCFEYFVCNNCVTGCTAMLRRDLLATALPIPEAETYHDWWLAVAASRRNGVVYHAAKLTEYRQHAHNYTGANVRAGLPARIAAHLMGKTAAEKRGYYELLANRARRYRAMADRLNLTPAERSFLEEIGEYAESLLSGGNRMKTFALALKYRETLFPAAGRWEKLLFVFSKLIAARAILEHHHHHH | soluble
12 | MASEKPLAAVTCTAPVNIAVIKYWGKRDEELVLPINSSLSVTLHQDQLKTTTTAVISKDFTEDRIWLNGREEDVGQPRLQACLREIRCLARKRRNSRDGDPLPSSLSCKVHVASVNNFPTAAGLASSAAGYACLAYTLARVYGVESDLSEVARRGSGSACRSLYGGFVEWQMGEQADGKDSIARQVAPESHWPELRVLILVVSAEKKLTGSTVGMRASVETSPLLRFRAESVVPARMAEMARCIRERDFPSFAQLTMKDSNQFHATCLDTFPPISYLNAISWRIIHLVHRFNAHHGDTKVAYTFDAGPNAVIFTLDDTVAEFVAAVWHGFPPGSNGDTFLKGLQVRPAPLSAELQAALAMEPTPGGVKYIIVTQVGPGPQILDDPCAHLLGPDGLPKPAA | soluble
13 | MPVAIVTGASSGIGRAAALLLARNNYKLSLTGRNVAALNELAGQIVSAGSDKNDVLVTAVELASEEAPKTIVDATVQKFGRIDTLINSAGILRAGPVLDSGIEVYDELMNVNVRSLIRLTRAALPHIITTKGTVVNVSSINGPCPFPNVTYYCMSKSAVDQFTKCLALEMAPNGVRVNAVCPGVTVTNLHRTSGQDETTYSAFLERSKTTHALGRPGDANEVAEAIYFLASEKSSFTTGELLRVDGGRGIMHPR | soluble
14 | MGTEGGAMIRTVALVGHAGSGKTTLTEALLYKTGAKERRGRVEEGTTTTDYTPEAKLHRTTVRTGVAPLLFRGHRVFLLDAPGYGDFVGEIRGALEAADAALVAVSAEAGVQVGTERAWTVAERLGLPRMVVVTKLDKGGDYYALLEDLRSTLGPILPIDLPLYEGGKWVGLIDVFHGKAYRYENGEEREAEVPPEERERVQRFRQEVLEAIVETDEGLLEKYLEGEEVTGEALEKAFHEAVRRGLLYPVALASGEREIGVLPLLELILEALPSPTERFGDGPPLAKVFKVQVDPFMGQVAYLRLYRGRLKPGDSLQSEAGQVRLPHLYVPMGKDLLEVEEAEAGFVLGVPKAEGLHRGMVLWQGEKPESEEVPFARLPDPNVPVALHPKGRTDEARLGEALRKLLEEDPSLKLERQEETGELLLWGHGELHLATAKERLQDYGVEVEFSVPKVPYRETIKKVAEGQGKYKKQTGGHGQYGDVWLRLEPASEYGFEWRITGGVIPSKYQEAIEEGIKEAAKKGVLAGFPVMGFKAIVYNGSYHEVDSSDLAFQIAASLAFKKVMAEAHPVLLEPIYRLKVLAPQERVGDVLSDLQARRGRILGMEQEGALSVVHAEVPLAEVLEYYKALPGLTGGAGAYTLEFSHYAEVPPHLAQRIVQERAQEG | soluble
15 | MGANGSTEDYNAIAEETRNYQIQEAARRKEHLEALERQDAKRRETLAETTRAQLAAAEAEQKRKDEMQQKMMESNLAAQVARNKRIDNAQNQQNLNIEKEIENSNNWLDKQRTANQAVMAQRYTDHQNVLTREKERLTETEIRLENNLVDAKKMLENTQNQFNDDKIGYHEKKVQQMNENASKIELLVSQTTNLVLEQEKNDIVHKLAIQGMEQRTILNRGAIIQAQSLDSVEREFIDAVNSTRQKGNEVANSISRMGSYAFQLKPEDPVWSRTSQVAYCKKEIQKVDLLLEVLSDNTEEISKQRENRNQEVLRCHAVACLIQNAITTVRNSLNQFGASLQENTFTNCIGYYTDLLEKNKTLTDVIVQLPAVSRSNHTTSAIMYSSQRFAIDVQNDRLALEQKGQLALQNMINGNGGNTT | not soluble
16 | MRSYDFSPLYRATVGFDRIADLMDRVMTSEVAQPTYPPYNIEKTAENAYRISIAVAGFTPDELAVEVKENTLHVGARKAADEAERTYLHRGIATRAFERRFALADHVRVSGATHEHGMLHIDLVRETPEALKPRRIEIARGDLGGTRSIEAVKEPVEA | not soluble
17 | MVIEVPQTERVNDVDVFLSTQDGQIQRPKGPNCRHPVRQKCTNCLPVDPFDEEYLKEKDIKHMSFHAHVRKLLGSQGKGTTLKKPLENFRCSLKPNCDAHKPFPKGICTKCKPQVVTLNRQKFRHVDNIQIENQELVNQFLDYWRLSGHQRVGFLIGQYQPHLEVPLGIKATVAAIYEPPQHCREDGIEFLEDKNQKTIDNLLEMLGLQRVGWIFTDCWTANSAEGTVHYTRHKDSFFLSAEECITAAMLQNQHPNITEYSMDRHYGSKFVTVVASGDESMHVNFHGYQVSNQCAAMVEADILCPTLYTPELAYVRETPLSEEHYITDVQFSMKNEYGAEVMKNGRPLPVEYLLVDVPAGMPKEPHYTFHVGTSNKSKSAKFNVENRQAIGQLQGGANLIQYSSEFSTNQFLEQATNFHFLLYLVTNDQVQISDEWMKRLCDAVKAQDRGTAMEWAQECEDWHQLMALAHANGGSGNDDIPVIPNGDPFSGSSSGGSRGAVWSCGHCTFQNEAGRQDCSMCGLPAAD | not soluble
18 | MAFTPFPPRQPTASARLPLTLMTLDDWALATITGADSEKYMQGQVTADVSQMAEDQHLLAAHCDAKGKMWSNLRLFRDGDGFAWIERRSVREPQLTELKKYAVFSKVTIAPDDERVLLGVAGFQARAALANLFSELPSKEKQVVKEGATTLLWFEHPAERFLIVTDEATANMLTDKLRGEAELNNSQQWLALNIEAGFPVIDAANSGQFIPQATNLQALGGISFKKGCYTGQEMVARAKFRGANKRALWLLAGSASRLPEAGEDLELKMGENWRRTGTVLAAVKLEDGQVVVQVVMNNDMEPDSIFRVRDDANTLHIEPLPYSLEELEHHHHHH | not soluble
19 | MTLTRGSFTYSSGEEYTGEWKEGRRHGKGELKFADGTCYKGHFENGLFHGSGVLVFPDGSRYEGEFAQGKFQGVGIFSRFDGMKFEGEFKSGRVEGHGLLTFPDGSHGAPRNEGMFENNKLLKREKCQAVVQRAKNSASTARGLSV | soluble
20 | MGSDKIHHHHHHMEGYLNSRLVRNAARVALVVAIPATLAGCGINTIPTQDEATKTAWAEVQNQYQRRADLIPNLVATVKGYAAQEKDVLTAVTEARASATQVKVDASTITDPAQFQKFAAAQDQLSGVLGRLMVIQEQYPDLKSNQNFLALQSQLEGTENRITIARRDYNETAQKYNTTLRTFPSLLWAKTLYSDQKPAQLFQASAAAQSAPTVDFSSPPTATPPKVQ | not soluble

— the DeepSol protein solubility set
